B1: library; numbered along this chain (parent)
chain: MAAAAAAAAEQQSSNGPVKKSMREKAVERRSVNKEHNSNFKAGYIPIDEDRLHKTGLRGRKGNLAICVIILLFILAVINLIITLVIWAVIRIGPNGCDSMEFHESGLLRFKQVSDMGVIHPLYKSTVGGRRNENLVITGNNQPIVFQQGTTKLSVENNKTSITSDIGMQFFDPRTQNILFSTDYETHEFHLPSGVKSLNVQKASTERITSNATSDLNIKVDGRAIVRGNEGVFIMGKTIEFHMGGNMELKAENSIILNGSVMVSTTRLPSSSSGDQLGSGDWVRYKLCMCADGTLFKVQVTSQNMGCQISDNPCGNTH

Variants of: B1
Test: SGCB cell-surface expression functional score (HA stain, bin4 vs bin1, normalised to synonymous) (log10 ratio); higher = more cell-surface SGCB (functional)
Procedure: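 Deep mutational scan of full-length human SGCB (YFP-SGCB-HA, NNN codon sublibraries A-F) delivered by lentivirus at low MOI into ADG-HEK293 cells stably expressing SGCA, SGCD and SGCG. YFP-positive cells were stained for surface HA on unpermeabilized cells and FACS-sorted into bins. The functional score is log10(frequency in high bin 4 / frequency in low bin 1), normalised per chunk so that synonymous variants have mean 0 and SD 0.5. Scores are the median over codons and over duplicate biological replicates; scores below -0.5 are called non-functional. Scale: negative means deleterious.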

Variant | SGCB cell-surface expression functional score (log10)
MAAAAAAAAEQQSSNGPVKKSMREKAVERRSVNKEHNSNFKAGYIPIDEDRLHKTGLRGRKGNLAICVIILLFILAVINLIITLVIWAVIRIGPNGCDSMEFHESGLLRFKQVSDMGVIHPLYKSTVGGRRNENLVITGNNQPIVFQQGTTKLSVENNKTSITSDIGMQFFDPRTQNILFSTDYETHEFHLPSGVKSLNVQKASTERITSNATSDLNIKVDGRAIVRGNEGVFIMGKTIEFHMGGNMELKAENSIILNGSVMVSTTRLPSSSSGDQLGSGDWVRYKLCMCADGTLFKVQVTSQNMHCQISDNPCGNTH [G306H] | 0.17
MAAAAAAAAEQQSSNGPVKKSMREKAVERRSVNKEHNSNFKAGYIPIDEDRLHKTGLRGRKGNLAICVIILLFILAVINLIITLVIWAVIRIGTNGCDSMEFHESGLLRFKQVSDMGVIHPLYKSTVGGRRNENLVITGNNQPIVFQQGTTKLSVENNKTSITSDIGMQFFDPRTQNILFSTDYETHEFHLPSGVKSLNVQKASTERITSNATSDLNIKVDGRAIVRGNEGVFIMGKTIEFHMGGNMELKAENSIILNGSVMVSTTRLPSSSSGDQLGSGDWVRYKLCMCADGTLFKVQVTSQNMGCQISDNPCGNTH [P94T] | -0.07
MAAAAAAAAEQQSSNGPVKKSMREKAVERRSVNKEHNSNFKAGYIPIDEDRLHKTGLRGRKGNLAICVIILLFILAVINLIITLVITAVIRIGPNGCDSMEFHESGLLRFKQVSDMGVIHPLYKSTVGGRRNENLVITGNNQPIVFQQGTTKLSVENNKTSITSDIGMQFFDPRTQNILFSTDYETHEFHLPSGVKSLNVQKASTERITSNATSDLNIKVDGRAIVRGNEGVFIMGKTIEFHMGGNMELKAENSIILNGSVMVSTTRLPSSSSGDQLGSGDWVRYKLCMCADGTLFKVQVTSQNMGCQISDNPCGNTH [W87T] | -0.05
MAAAAAAAAEQQSSNGPVKKSMREKAVERRSVNKEHNSNFKAGYIPIDEDRLHKTGLRGRKGNLAICVIILLFILAVINLIITLVIWAVIRIGPNGCDSMEFHESGLLRFKQVSDMGVIHPLYKSTVGGRRNENLVITGNNQPIVFQQGTTKLSVENNKTSITSDIGMQFFDPRTQNILFSTDYETHEFHLPSGVKSLNVQKASTSRITSNATSDLNIKVDGRAIVRGNEGVFIMGKTIEFHMGGNMELKAENSIILNGSVMVSTTRLPSSSSGDQLGSGDWVRYKLCMCADGTLFKVQVTSQNMGCQISDNPCGNTH [E206S] | 0.16
MAAAAAAAAEQQSSNGPVKKSMREKAVERRSVNKEHNSNFKAGYIPIDEDRLHKTGLRGRKGNLAICVIILLFILAVINLIITLVIWAVIRIGPNGCDSMEFHESGLLRFKQVSDMGVIHPLYKSTVGGRRNENLVITGNNQPIVFQQGTTKLSVENNKTSITSDIGMQFFDPRTQNILFSTDYETHEFHLPSGVKSLNVQKASTERITSNATSDLNIKVDGRAIVRGNEGVFIMGKTIEFHMGGNMELKAENSIILNGSVMVSTTRLPSSSSGDQLGSGDWVRYKLCMCADGTLFKVQVTSQNMGCQISDNPEGNTH [C314E] | -0.03
MAAAAAAAAEQQSSNGPVKKSMREKAVERRSVNKEHNSNFKAGYIPIDEDRLHKTGLRGRKGNLAICVIILLFILAVINLIITLVIWAVIRIGPNGCDSMEFHESGLLRFKQVSDMGVIHPLYKSTVGGRRNENLVITGNNQPIVFQQGTTKLSVENNKTSITSDIGMQFFDPRTQNILFSTDYETHEFHLKSGVKSLNVQKASTERITSNATSDLNIKVDGRAIVRGNEGVFIMGKTIEFHMGGNMELKAENSIILNGSVMVSTTRLPSSSSGDQLGSGDWVRYKLCMCADGTLFKVQVTSQNMGCQISDNPCGNTH [P192K] | -1.31
MAAAAAAAAEQQSSNGPVKKSMREKAVERRSVNKEHNSNFKAGYIPIDEDRLHKTGLRGRKGNLAICVIILLFILAVINLIITLVIWAVIRIGPNGCDSMEFHESGLLRFKQVSDMGVIHPLYKSTVGGRRNENLVITGNNQPIVFQQGTTKLSVENNKTSITSDIGMQFFDPRTQNILFSTDYETHEFHLPSGVKSLNVQKASTERITSNATSALNIKVDGRAIVRGNEGVFIMGKTIEFHMGGNMELKAENSIILNGSVMVSTTRLPSSSSGDQLGSGDWVRYKLCMCADGTLFKVQVTSQNMGCQISDNPCGNTH [D215A] | -0.72
MAAAAAAAAEQQSSNGPVKKSMREKAVERRSVNKEHNSNFKAGYIPIDEDRLHKTGLRGRKGNLAICVIILLFILAVINLIITLVIWAVIRIGPNGCDSMEFHESGLLRFKQVSDMGVIHPLYKSTVGGRRNENLVITGNNQPIVFQQGTTKLSVENNKTSITSDIGMQFFDPRTQNILFSTDYETHEFHLPSGVKSLNVQKASTERITSNATSDLNIKVDGRAIVRGNEGVFIMGKTIEFHMGGNMELKAENSIILNGSVMVSTTRLPSSSSGDQLGSGDWVRYKLCMCADGTLFKVQVTSQNMGCMISDNPCGNTH [Q308M] | 0.09
MAAAAAAAAEQQSSNGPVKKSMREKAVERRSVNKEHNSNFKAGYIPIDEDRLHKTGLRGRKGNLAICVIILLFILAVINLIITLVIWAVIRIGPNGCDSMEFHESGLLRFKQVSDMGVIHPLYKSTVGGRRNENLVITGNNQPSVFQQGTTKLSVENNKTSITSDIGMQFFDPRTQNILFSTDYETHEFHLPSGVKSLNVQKASTERITSNATSDLNIKVDGRAIVRGNEGVFIMGKTIEFHMGGNMELKAENSIILNGSVMVSTTRLPSSSSGDQLGSGDWVRYKLCMCADGTLFKVQVTSQNMGCQISDNPCGNTH [I144S] | -0.8
MAAAAAAAAEQQSSNGPVKKSMREKAVERRSVNKEHNSNFKAGYIPIDEDRLHKTGLRGRKGNLAICVIILLFILAVINLIITLVIWAVIRIGPNGCDSMEFHESGLLRFKQVSDMGVIHPLYKSTVGGRRNENLVITGNNQPIVFQQGTTKLSVENNKTSITSDIGMQFFDPRTQNILFSTDYETHEFHLPSGVKSLNVQKASTERITSNATSDLNIKVDGRAIVRGNEGVAIMGKTIEFHMGGNMELKAENSIILNGSVMVSTTRLPSSSSGDQLGSGDWVRYKLCMCADGTLFKVQVTSQNMGCQISDNPCGNTH [F233A] | 0.97
MAAAAAAAAEQQSSNGPVKKSMREKAVERRSVNKEHNSNFKAGYIPIDEDRLHKTGLRGRKGNLAICVIILLFILAVINLIITLVIWAVIRIGPNGCDSMEFHESGLLRFKQVSDMGVIHPLYKSTVGGRRNENLVITGRNQPIVFQQGTTKLSVENNKTSITSDIGMQFFDPRTQNILFSTDYETHEFHLPSGVKSLNVQKASTERITSNATSDLNIKVDGRAIVRGNEGVFIMGKTIEFHMGGNMELKAENSIILNGSVMVSTTRLPSSSSGDQLGSGDWVRYKLCMCADGTLFKVQVTSQNMGCQISDNPCGNTH [N140R] | 0.05
MAAAAAAAAEQQSSNGPVKKSMREKAVERRSVNKEHNSNFKAGYIPIDEDRLHKTGLRGRKGNLAICVIILLFILAVINLIITLVIWAVIRIGPNGCDSMEFHESGLLRFKQVSDMGVIHPLYKSTVGGRRNENLVITVNNQPIVFQQGTTKLSVENNKTSITSDIGMQFFDPRTQNILFSTDYETHEFHLPSGVKSLNVQKASTERITSNATSDLNIKVDGRAIVRGNEGVFIMGKTIEFHMGGNMELKAENSIILNGSVMVSTTRLPSSSSGDQLGSGDWVRYKLCMCADGTLFKVQVTSQNMGCQISDNPCGNTH [G139V] | -1.28
MAAAAAAAAEQQSSNGPVKKSMREKAVERRSVNKEHNSNFKAGYIPIDEDRLHKTGLRGRKGNLAICVIILLFILAVINLIITLVIWAVIRIGPNGCDSMEFHESGLLRFKQVSDMGVIHPLYKSTVGRRRNENLVITGNNQPIVFQQGTTKLSVENNKTSITSDIGMQFFDPRTQNILFSTDYETHEFHLPSGVKSLNVQKASTERITSNATSDLNIKVDGRAIVRGNEGVFIMGKTIEFHMGGNMELKAENSIILNGSVMVSTTRLPSSSSGDQLGSGDWVRYKLCMCADGTLFKVQVTSQNMGCQISDNPCGNTH [G129R] | -1.04
MAAAAAAAAEQQSSNGPVKKSMREKAVERRSVNKEHNSNFKAGYIPIDEDRLHKTGLRGRKGNLAICVIILLFILAVINLIITLVIWAVIRIGPNGCDSMEFHESGLLRFKQVSDMGVIHPLYKSTVGGRRNENLVITGNNQPIVFQQGTTKLSVENNKTSITSDIGMQFFDPRTQNILFSTDYETHEFHLPSGVKSLNVQKASTERITSNWTSDLNIKVDGRAIVRGNEGVFIMGKTIEFHMGGNMELKAENSIILNGSVMVSTTRLPSSSSGDQLGSGDWVRYKLCMCADGTLFKVQVTSQNMGCQISDNPCGNTH [A212W] | -0.44
MAAAAAAAAEQQSSNGPVKKSMREKAVERRSVNKEHNSNFKAGYIPIDEDRLHKTGLRGRKGNLAICVIILLFILAVINLIITLVIWAVIRIGPNGCDSMEFHESGLLRFKQVSDMGVIHPLYKSTVGGRRNENLVITGNNQPIVFQQGTTKLSVENNKTSITSDIGMQFFDPRTQNILFSTDYETHEFHLPSGVKSLNVQKASTERITSNATSDLNIKVDGRAIVRGNEGVFIMGKTIEFHMGGNMELKAENSIILNGSVMVSTTRLPSSSSGDQLGSGDWVRCKLCMCADGTLFKVQVTSQNMGCQISDNPCGNTH [Y285C] | -0.68
MAAAAAAAAEQQSSNGPVKKSMREKAVERRSVNKEHNSNFKAGYIPIDEDRLHKTGLRGRKGNLAICVIILLFILAVINLIITLVIWAVIRIGPNGCDSMEFHESGLLRFKQVSDMGVIHPLYKSTVGGRRNENLVITGNNQPIVFQQGTTKLSVENNKTSITSDIGMQFFDPRTQNILFSTDYETHEFHLPSGVKSLNVQKASTERITSNATSDLNIKVDGRAIVRGNEGVFIMGKTIEFHMGGNMELKAENSIILNGSVMVSTTRLPSSSSGDQLGSGDWVRYKLCMCADGTSFKVQVTSQNMGCQISDNPCGNTH [L295S] | -0.42
MAAAAAAAAEQQSSNGPVKKSMREKAVERRSVNKEHNSNFKAGYIPIDEDRLHKTGLRGRKGNLAICVIILLFILAVINLIITLVIWAVIRIGPNGCDSMEFHESGLLRFKQVSDMGVIHPLYKSTVGGRRNENDVITGNNQPIVFQQGTTKLSVENNKTSITSDIGMQFFDPRTQNILFSTDYETHEFHLPSGVKSLNVQKASTERITSNATSDLNIKVDGRAIVRGNEGVFIMGKTIEFHMGGNMELKAENSIILNGSVMVSTTRLPSSSSGDQLGSGDWVRYKLCMCADGTLFKVQVTSQNMGCQISDNPCGNTH [L135D] | -1.2
MAAAAAAAAEQQSSNGPVKKSMREKAVERRSVNKEHNSNFKAGYIPIDEDRLHKTGLRGRKGNLAICVIILLFILAVINLIITLVIWAVIRIGPNGCDSMEFHESGLLRFKQVSDMGVIHPLYKSTVGGRRNENLVITGNNQPIVFQQGTTKLSVENNKTYITSDIGMQFFDPRTQNILFSTDYETHEFHLPSGVKSLNVQKASTERITSNATSDLNIKVDGRAIVRGNEGVFIMGKTIEFHMGGNMELKAENSIILNGSVMVSTTRLPSSSSGDQLGSGDWVRYKLCMCADGTLFKVQVTSQNMGCQISDNPCGNTH [S161Y] | -0.18
MAAAAAAAAEQQSSNGPVKKSMREKAVERRSVNKEHNSNFKAGYIPIDEDRLHKTGLRGRKGNLAICVIILLFILAVINLIITLVIWAVIRIGPNGCDSMEFHESGLLRFKQVSDMGVIHPLYKSTVGGRRNENLVITGNNQPIVFQQGTTKLSVENNKTSITSDIGMQFFDPRTQNILFSTDYETHEFHLPSGVKSLNVQKASTERITSNATSDLNIKVDGRAIVRGNEGVFIMGKTIEFHMGGNMELKAENSIILNGSVMVSTTRLPSSSSGDQLGSGDWVRYKLCMCADGTLFKVQVTSQAMGCQISDNPCGNTH [N304A] | -0.43

Reference: the supplement of paper PMC10266784
